The record followed here is the supplement of paper PMC12458215.

This series relates to HEK293T. The series is described as follows: plasma membrane surface immunostaining intensity (anti-HA, deep receptor scanning) (arbitrary fluorescence units); higher = higher plasma membrane expression.

± gives the uncertainty stated by the source.

“MPSKSLSNLSVTTGANESGSVPEGWERDFLPASDGTTTELVIRCVIPSLYLLIITVGLLGNIMLVKIFITNSAMRSVPNIFISNLAAGDLLLLLTCVPVDASRYFFDEWMFGKVGCKLIPVIQLTSVGVSVFTLTALSADRYRAIVNPMDMQTSGALLRTCVKAMGIWVVSVLLAVPEAVFSEVARISSLDNSSFTACIPYPQTDELHPKIHSVLIFLVYFLIPLAIISIYYYHIAKTLIKSAHNLPGEYNEHTKKQMETRKRLAKIVLVFVGCFIFCWFPNHILYMYRSFNYNEIDPSLGHMIVTLVARVLSFGNSCVNPFALYLLSESFRRHFNSQLCCGRKSYQERGTSYLLSSSAVRMTSLKSNAKNMVTNSVLLNGHSMKQEMAL [NMBR]”: under “GPCR class: A”, the “plasma membrane surface immunostaining intensity” value was determined as 2430 ± 1200. On the same count and under the same terms, the figure for “MPSPPGLRALWLCAALCASRRAGGAPQPGPGPTACPAPCHCQEDGIMLSADCSELGLSAVPGDLDPLTAYLDLSMNNLTELQPGLFHHLRFLEELRLSGNHLSHIPGQAFSGLYSLKILMLQNNQLGGIPAEALWELPSLQSLRLDANLISLVPERSFEGLSSLRHLWLDDNALTEIPVRALNNLPALQAMTLALNRISHIPDYAFQNLTSLVVLHLHNNRIQHLGTHSFEGLHNLETLDLNYNKLQEFPVAIRTLGRLQELGFHNNNIKAIPEKAFMGNPLLQTIHFYDNPIQFVGRSAFQYLPKLHTLSLNGAMDIQEFPDLKGTTSLEILTLTRAGIRLLPSGMCQQLPRLRVLELSHNQIEELPSLHRCQKLEEIGLQHNRIWEIGADTFSQLSSLQALDLSWNAIRSIHPEAFSTLHSLVKLDLTDNQLTTLPLAGLGGLMHLKLKGNLALSQAFSKDSFPKLRILEVPYAYQCCPYGMCASFFKASGQWEAEDLHLDDEESSKRPLGLLARQAENHYDQDLDELQLEMEDSKPHPSVQCSPTPGPFKPCEYLFESWGIRLAVWAIVLLSVLCNGLVLLTVFAGGPVPLPPVKFVVGAIAGANTLTGISCGLLASVDALTFGQFSEYGARWETGLGCRATGFLAVLGSEASVLLLTLAAVQCSVSVSCVRAYGKSPSLGSVRAGVLGCLALAGLAAALPLASVGEYGASPLCLPYAPPEGQPAALGFTVALVMMNSFCFLVVAGAYIKLYCDLPRGDFEAVWDCAMVRHVAWLIFADGLLYCPVAFLSFASMLGLFPVTPEAVKSVLLVVLPLPACLNPLLYLLFNPHFRDDLRRLRPRAGDSGPLAYAAAGELEKSSCDSTQALVAFSDVDLILEASEAGRPPGLETYGFPSVTLISCQQPGAPRLEGSHCVEPEGNHFGNPQPSMDGELLLRAEGSTPAGGGLSGGGGFQPSGLAFASHV [LGR6]” is 479 ± 50. For the sequence “MPVGKLVFNQSEPTEFVFRAFTTATEFQVLLFLLFLLLYLMILCGNTAIIWVVCTHSTLRTPMYFFLSNLSFLELCYTTVVVPLMLSNILGAQKPISLAGCGAQMFFFVTLGSTDCFLLAIMAYDRYVAICHPLHYTLIMTRELCTQMLGGALGLALFPSLQLTALIFTLPFCGHHQEINHFLCDVPPVLRLACADIRVHQAVLYVVSILVLTIPFLLICVSYVFITCAILSIRSAEGRRRAFSTCSFHLTVVLLQYGCCSLVYLRPRSSTSEDEDSQIALVYTFVTPLLNPLLYSLRNKDVKGALRSAIIRKAASDAN [OR10Q1]”, the “plasma membrane surface immunostaining intensity” value (GPCR class: A (Olfactory)) was 243 ± 67.

Regarding “MQAALTAFFVLLFSLLSLLGIAANGFIVLVLGREWLRYGRLLPLDMILISLGASRFCLQLVGTVHNFYYSAQKVEYSGGLGRQFFHLHWHFLNSATFWFCSWLSVLFCVKIANITHSTFLWLKWRFPGWVPWLLLGSVLISFIITLLFFWVNYPVYQEFLIRKFSGNMTYKWNTRIETYYFPSLKLVIWSIPFSVFLVSIMLLINSLRRHTQRMQHNGHSLQDPSTQAHTRALKSLISFLILYALSFLSLIIDAAKFISMQNDFYWPWQIAVYLCISVHPFILIFSNLKLRSVFSQLLLLARGFWVA [TAS2R41]”, for the setting “GPCR class: Taste”, the “plasma membrane surface immunostaining intensity” value turned out to be 129 ± 20. For the sequence “MQALNITPEQFSRLLRDHNLTREQFIALYRLRPLVYTPELPGRAKLALVLTGVLIFALALFGNALVFYVVTRSKAMRTVTNIFICSLALSDLLITFFCIPVTMLQNISDNWLGGAFICKMVPFVQSTAVVTEILTMTCIAVERHQGLVHPFKMKWQYTNRRAFTMLGVVWLVAVIVGSPMWHVQQLEIKYDFLYEKEHICCLEEWTSPVHQKIYTTFILVILFLLPLMVMLILYSKIGYELWIKKRVGDGSVLRTIHGKEMSKIARKKKRAVIMMVTVVALFAVCWAPFHVVHMMIEYSNFEKEYDDVTIKMIFAIVQIIGFSNSICNPIVYAFMNENFKKNVLSAVCYCIVNKTFSPAQRHGNSGITMMRKKAKFSLRENPVEETKGEAFSDGNIEVKLCEQTEEKKKLKRHLALFRSELAENSPLDSGH [QRFPR]”, where the note is “GPCR class: A”, the “plasma membrane surface immunostaining intensity” value amounted to 392 ± 31.
